One assay addresses T1, GC-hIgA-MYC (human).
T1 construct: also called hIgA-v2
Description: SPR (Biacore T200), 25 C, pH 7.4, 1.2 mM Ca; 200 nM antibody with or without 200 nM antigen over captured human FcγRIIIaV; immune complex shown by slower dissociation. Background: In SPR one partner is held on a chip, and binding of the other changes the refractive index at the surface.

Assay [1] concerns the target Human IgA (hIgA), H (WT)-IgA1 / L (WT) (human). Description: >=.
The target in assay [2] is T2, human IgE (variable region derived from an anti-human glypican3 antibody) (human).
T2 construct: also called hIgE
Description: SPR (Biacore T200), 37 C; ratio of KD values. As to the method:
Running buffers used in the assay were:
A chemically-synthetized peptide having a human glypican 3 protein-derived sequence (SEQ ID NO: 47) whose C-terminal Lys is biotinylated (hereinafter abbreviated as “biotinylated GPC3 peptide”) was added in an appropriate amount and immobilized onto Sensor chip SA (GE Healthcare) based on the affinity between biotin and streptavidin. Human IgE was immobilized onto the chip by injecting it at an appropriate concentration so as to be trapped by the biotinylated GPC3 peptide. […] Then, 10 mmol/L glycine-HCl (pH 1.5) was injected to regenerate the sensor chip. The interaction was always measured at 37° C. The measurement result was analyzed by curve fitting using Biacore T200 Evaluation Software (GE Healthcare) to calculate the association rate constant ka (1/Ms) and dissociation rate constant kd (1/s). The dissociation constant KD (M) was calculated from the above-described constants.

For assay [3], the target named is T3, soluble mouse FcRn (mFcRn), with mouse β2-microglobulin (mouse, UniProt Q61559 22-290; P01887 21-119).
T3 sequence: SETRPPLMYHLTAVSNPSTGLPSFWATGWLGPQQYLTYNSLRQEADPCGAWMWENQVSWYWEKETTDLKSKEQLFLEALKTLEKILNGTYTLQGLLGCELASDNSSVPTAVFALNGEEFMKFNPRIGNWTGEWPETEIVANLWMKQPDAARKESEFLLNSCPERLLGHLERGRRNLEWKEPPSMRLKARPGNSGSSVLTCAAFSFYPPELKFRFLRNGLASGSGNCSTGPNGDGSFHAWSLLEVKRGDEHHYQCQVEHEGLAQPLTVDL
T3 sequence (b2m): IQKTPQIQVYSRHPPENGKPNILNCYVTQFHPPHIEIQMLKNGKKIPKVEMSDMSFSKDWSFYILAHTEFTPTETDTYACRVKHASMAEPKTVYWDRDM
Description: SPR (Biacore T100), mouse FcRn immobilised on a CM4 chip, clone 278-IgG1 50 µg/mL as analyte, pH 7.4, 25 °C; bound amount normalised to 100 [ii]. As to the method:
(§1) Binding of an antigen-antibody immune complex with FcRn was assessed using Biacore T100 (GE Healthcare). […] Subsequently, a 20 mM Tris-HCl, 150 mM NaCl, pH 9.0 or pH 9.5 solution was injected to regenerate the sensor chip. A 50 mmol/L Na-Phosphate (phsophoric acid), 150 mmol/L NaCl, 0.05% Tween20, pH 7.4 buffer was used as the running buffer, and binding between the antigen-antibody immune complex and FcRn was measured at 25° C.

Assay [4] deals with T3, soluble mouse FcRn (mFcRn), with mouse …. Description: SPR (Biacore T100), mouse FcRn immobilised on a CM4 chip, Fv4-IgG1 50 µg/mL alone or with hsIL6R 12.5 µg/mL as analyte, pH 7.4, 25 °C; bound amount normalised to 100 [i]. As to the method:
as §1

Assay [5] deals with T4, soluble human IL-6 receptor (hsIL-6R) (human, UniProt P08887 20-357).
T4 construct: also called hIL-6R
T4 sequence: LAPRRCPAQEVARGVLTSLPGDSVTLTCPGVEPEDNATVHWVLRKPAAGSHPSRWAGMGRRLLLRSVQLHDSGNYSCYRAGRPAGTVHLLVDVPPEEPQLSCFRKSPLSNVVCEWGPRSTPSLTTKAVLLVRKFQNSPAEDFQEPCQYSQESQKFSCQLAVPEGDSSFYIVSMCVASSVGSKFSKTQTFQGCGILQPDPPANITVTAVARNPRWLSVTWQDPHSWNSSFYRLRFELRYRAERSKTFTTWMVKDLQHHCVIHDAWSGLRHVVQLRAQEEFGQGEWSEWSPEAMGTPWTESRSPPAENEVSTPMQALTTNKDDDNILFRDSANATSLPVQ
Description: ECL sandwich: biotinylated Fv4-IgG1 on streptavidin plate captures hsIL-6R, detected with ruthenium-labelled PHX-F29. As to the method: Whether or not two types of antibodies can bind to a single antigen simultaneously was evaluated by an electrochemiluminescence method. […] After washing, 100 μL of the hsIL-6R solutions prepared at 0, 0.2, 1, 5, and 25 μg/mL was added, and they were allowed to react at room temperature for one hour. […] After washing, 150 μL of Read Buffer T (×4) (Meso Scale Discovery) was dispensed into each well, and this was immediately followed by chemiluminescence measurement using the SECTOR IMAGER 2400 Reader (Meso Scale Discovery).

The target in assay [6] is T4, soluble human IL-6 receptor (hsIL-6R). Description: SPR (Biacore T100), 25 C, pH 7.4; Fv4-F22 10 µg/mL with or without hsIL6R 2.5 µg/mL over immobilized hFcRn. As to the method:
(§2) Binding of an antigen-antibody immune complex with human FcRn was assessed using Biacore T100 (GE Healthcare).
(§3) Subsequently, a 20 mM Tris-HCl, 150 mM NaCl, pH 9.0 or pH 9.5 solution was injected to regenerate the sensor chip. A 50 mmol/L Na-Phosphate (phosphoric acid), 150 mmol/L NaCl, 0.05% Tween20, pH 7.4 buffer was used as the running buffer, and binding between the antigen-antibody immune complex and FcRn was measured at 25° C.

In assay [7] the target is soluble human FcRn (hFcRn), complex with β2-microglobulin (human, UniProt P55899 24-290; P61769 21-119). Description: SPR (Biacore T100), human FcRn immobilised on a CM4 chip, Fv4-F22 10 µg/mL alone or with hsIL6R 2.5 µg/mL as analyte, pH 7.4, 25 °C; bound amount normalised to 100 [i]. As for the experimental part: as §2, §3
Sequence of soluble human FcRn (hFcRn), complex with β2-microglobulin (P55899 24-290 limits assumed, chain 1 of 2): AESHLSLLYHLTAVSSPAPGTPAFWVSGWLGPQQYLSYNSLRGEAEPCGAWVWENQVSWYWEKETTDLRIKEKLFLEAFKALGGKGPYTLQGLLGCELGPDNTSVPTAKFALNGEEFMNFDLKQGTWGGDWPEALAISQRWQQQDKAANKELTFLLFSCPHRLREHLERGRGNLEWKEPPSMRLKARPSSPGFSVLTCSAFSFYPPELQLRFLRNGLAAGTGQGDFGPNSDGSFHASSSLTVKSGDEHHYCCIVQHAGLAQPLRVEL
Sequence of soluble human FcRn (hFcRn), complex with β2-microglobulin (P61769 21-119 limits assumed, chain 2 of 2): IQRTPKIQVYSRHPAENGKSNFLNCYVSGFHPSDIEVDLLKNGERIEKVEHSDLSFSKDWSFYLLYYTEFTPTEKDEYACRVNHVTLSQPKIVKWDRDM

T2 sequence (heavy, as listed by the source): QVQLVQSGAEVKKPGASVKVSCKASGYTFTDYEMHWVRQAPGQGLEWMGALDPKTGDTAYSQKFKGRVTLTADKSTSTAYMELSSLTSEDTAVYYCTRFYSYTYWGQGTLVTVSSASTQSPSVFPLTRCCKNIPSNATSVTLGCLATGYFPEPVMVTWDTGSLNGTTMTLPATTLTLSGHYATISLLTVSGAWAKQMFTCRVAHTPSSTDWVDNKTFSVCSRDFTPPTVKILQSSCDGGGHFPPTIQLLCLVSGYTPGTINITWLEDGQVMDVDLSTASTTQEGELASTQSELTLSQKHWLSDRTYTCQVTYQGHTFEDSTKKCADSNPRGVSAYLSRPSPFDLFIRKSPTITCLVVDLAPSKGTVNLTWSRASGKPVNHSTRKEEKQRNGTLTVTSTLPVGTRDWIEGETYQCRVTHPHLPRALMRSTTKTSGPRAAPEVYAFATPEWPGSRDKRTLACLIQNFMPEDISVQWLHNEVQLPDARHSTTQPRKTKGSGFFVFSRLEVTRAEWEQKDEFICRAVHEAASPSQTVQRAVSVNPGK
Sequence of Human IgA (hIgA), H (WT)-IgA1 / L (WT) (human) (VH, as listed by the source): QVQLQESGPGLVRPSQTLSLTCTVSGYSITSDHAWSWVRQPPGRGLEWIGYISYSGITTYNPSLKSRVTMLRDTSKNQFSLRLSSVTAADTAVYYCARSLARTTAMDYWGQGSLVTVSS
T1 sequence (heavy, as listed by the source): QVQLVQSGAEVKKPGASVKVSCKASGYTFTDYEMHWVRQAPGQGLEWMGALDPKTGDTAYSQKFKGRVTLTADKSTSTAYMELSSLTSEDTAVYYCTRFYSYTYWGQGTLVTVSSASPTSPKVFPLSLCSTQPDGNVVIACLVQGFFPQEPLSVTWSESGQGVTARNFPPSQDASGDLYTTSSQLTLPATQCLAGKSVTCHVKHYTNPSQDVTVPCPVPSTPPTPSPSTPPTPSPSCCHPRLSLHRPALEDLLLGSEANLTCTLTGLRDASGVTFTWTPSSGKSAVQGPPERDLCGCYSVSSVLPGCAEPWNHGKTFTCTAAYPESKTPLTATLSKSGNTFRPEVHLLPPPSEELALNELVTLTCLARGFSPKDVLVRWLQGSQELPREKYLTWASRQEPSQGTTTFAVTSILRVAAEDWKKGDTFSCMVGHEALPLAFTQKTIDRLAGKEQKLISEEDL
Description for GC-hIgA-MYC: Binding of an antigen-antibody immune complex with FcγR was assessed using Biacore T200 (GE Healthcare).
A suitable amount of the Penta-His Antibody (QIAGEN) was immobilized onto Sensor chip CM5 (GE Healthcare) by an amine coupling method; and a suitable concentration of his-tagged human FcγR IIIaV was injected. Human FcγR IIIaV was immobilized onto the chip by allowing the penta-His antibody immobilized on the chip to capture human FcγR IIIaV. A solution containing 200 nM antibody or a mixed solution containing 200 nM antibody and 200 nM antigen was injected as the analyte; and it was allowed to interact with human FcγR IIIaV immobilized on the sensor chip. Subsequently, a 10 mmol/L Glycine-HCl, pH2.5 solution was injected to regenerate the sensorchip. A 1.2 mmol/L CaCl₂/0.05% tween20, 20 mmol/L ACES, 150 mmol/L NaCl, pH 7.4 buffer was used as the running buffer, and binding between the antigen-antibody immune complex and FcγR was measured at 25° C.

B1: GA2-IgG1 (antibody, V domains shown)
VH: QVQLVQSGAEVKKPGSSVKVSCKASGGTFSSYAISWVRQAPGQGLEWMGGIIPIFGTANYAQKFQGRVTITADESTSTAYMELSSLRSEDTAVYYCARPRWETAISSDAFDIWGQGTMVTVSS
VL: DIQMTQSPSSLSASVGDRVTITCRASQSISDDLNWYQQKPGKAPKLLIYEASNLQSGVPSRFSGSGSGTDFTLTISSLQPEDFATYYCQQHSSSPLTFGQGTKVEIKR
notes: also called GA-IgG1
For the molecule B1, the binding result with GC-hIgA-MYC was “binds”. The “Ca-dependent binding activity (fold)” value in assay [1] is 100 times.

B2: clone 278 (antibody, human IgG1, kappa)
heavy: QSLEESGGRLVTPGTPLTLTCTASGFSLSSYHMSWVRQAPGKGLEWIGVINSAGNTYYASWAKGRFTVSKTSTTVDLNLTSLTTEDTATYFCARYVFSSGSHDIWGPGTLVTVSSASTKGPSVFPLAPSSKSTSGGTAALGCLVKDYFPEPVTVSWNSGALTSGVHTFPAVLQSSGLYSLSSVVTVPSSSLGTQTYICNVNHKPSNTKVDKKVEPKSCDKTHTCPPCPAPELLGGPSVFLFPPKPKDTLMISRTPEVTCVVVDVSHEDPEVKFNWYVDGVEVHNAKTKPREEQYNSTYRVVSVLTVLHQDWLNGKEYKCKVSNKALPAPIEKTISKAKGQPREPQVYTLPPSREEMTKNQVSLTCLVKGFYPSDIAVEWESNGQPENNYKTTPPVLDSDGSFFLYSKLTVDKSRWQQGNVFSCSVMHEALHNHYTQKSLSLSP
light: AYDMTQTPASVEVAVGGTVTIKCQASQSIGSWLAWYQQKPGQPPKELIYGTSTLESGVPSRFIGSGSGTEFTLTISGVECADAATYYCQQGYSEDNIDNAFGGGTEVVVKRTVAAPSVFIFPPSDEQLKSGTASVVCLLNNFYPREAKVQWKVDNALQSGNSQESVTEQDSKDSTYSLSSTLTLSKADYEKHKVYACEVTHQGLSSPVTKSFNRGEC
notes: pH-dependent anti-human IgE antibody with a human IgG1 heavy chain constant region and a human light chain constant region
For B2, in assay [2], the “pH dependency, KD (pH 5.8, 1.2 mM Ca)/KD (pH 7.4, 1.2 mM Ca)” value was 842 ratio and the “pH/Ca dependency, KD (pH 5.8, 3 µM Ca)/KD (pH 7.4, 1.2 mM Ca)” value was 1640 ratio. Also, the binding result in assay [3] was “binds”.

B3: Fv4-IgG1 (antibody)
heavy: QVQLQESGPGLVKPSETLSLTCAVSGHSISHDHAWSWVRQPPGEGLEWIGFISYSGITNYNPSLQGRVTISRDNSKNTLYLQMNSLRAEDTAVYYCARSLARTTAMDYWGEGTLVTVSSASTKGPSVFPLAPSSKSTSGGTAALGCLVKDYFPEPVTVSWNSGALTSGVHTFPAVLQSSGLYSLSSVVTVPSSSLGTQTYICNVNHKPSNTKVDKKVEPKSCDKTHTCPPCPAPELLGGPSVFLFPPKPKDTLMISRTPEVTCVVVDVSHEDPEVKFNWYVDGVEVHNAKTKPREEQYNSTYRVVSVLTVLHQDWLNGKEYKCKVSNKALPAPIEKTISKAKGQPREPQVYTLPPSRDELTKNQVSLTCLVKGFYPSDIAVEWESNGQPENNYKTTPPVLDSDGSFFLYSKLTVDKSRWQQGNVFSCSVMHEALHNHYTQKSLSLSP
light: DIQMTQSPSSLSASVGDSVTITCQASTDISSHLNWYQQKPGKAPELLIYYGSHLLSGVPSRFSGSGSGTDFTFTISSLEAEDAATYYCGQGNRLPYTFGQGTKVEIERTVAAPSVFIFPPSDEQLKSGTASVVCLLNNFYPREAKVQWKVDNALQSGNSQESVTEQDSKDSTYSLSSTLTLSKADYEKHKVYACEVTHQGLSSPVTKSFNRGEC
notes: pH-dependent anti-human IL-6 receptor antibody
Take B3: the binding result in assay [4] and in assay [5] was “binds” in each case.

B4: Fv4-F22 (antibody, human IgG1, kappa)
heavy: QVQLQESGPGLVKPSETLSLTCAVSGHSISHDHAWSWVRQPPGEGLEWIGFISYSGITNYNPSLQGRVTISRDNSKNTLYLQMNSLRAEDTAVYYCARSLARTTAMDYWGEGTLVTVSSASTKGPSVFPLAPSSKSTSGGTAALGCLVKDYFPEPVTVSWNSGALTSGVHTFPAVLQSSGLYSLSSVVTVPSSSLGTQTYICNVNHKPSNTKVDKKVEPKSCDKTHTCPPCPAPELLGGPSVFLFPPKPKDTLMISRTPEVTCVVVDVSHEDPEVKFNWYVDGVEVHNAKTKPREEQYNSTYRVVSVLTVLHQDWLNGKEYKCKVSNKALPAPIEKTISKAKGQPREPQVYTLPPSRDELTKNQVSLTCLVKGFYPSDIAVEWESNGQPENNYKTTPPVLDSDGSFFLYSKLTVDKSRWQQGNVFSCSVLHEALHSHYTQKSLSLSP
light: DIQMTQSPSSLSASVGDSVTITCQASTDISSHLNWYQQKPGKAPELLIYYGSHLLSGVPSRFSGSGSGTDFTFTISSLEAEDAATYYCGQGNRLPYTFGQGTKVEIERTVAAPSVFIFPPSDEQLKSGTASVVCLLNNFYPREAKVQWKVDNALQSGNSQESVTEQDSKDSTYSLSSTLTLSKADYEKHKVYACEVTHQGLSSPVTKSFNRGEC
Regarding B4, the binding result in assay [6] and in assay [7] was “binds” in each case.

The values above are taken from patent publication US20190218309A1 (Chugai, published 2019).
